According to patent US8003342:

Biological target: rat brain farnesyl:protein transferase (rat) (UniProt Q04631)
Test: cell-based or functional assay

fold decline of affinity [fold] | concentration giving 50% inhibition [µM] | fold decrease of affinity against CVIM, from the concentration required for 50% inhibition [fold] | Substance
> 50 | – | – | CVIM with glutamic acid at the A2 position (peptide)
– | > 40 | > 30 | CVIM with lysine at the X position (peptide)

Second part, the substance before the results:

Substance | fold decline of affinity [fold] | concentration giving 50% inhibition [µM] | fold decrease of affinity against CVIM, from the concentration required for 50% inhibition [fold]
CVIM with glutamic acid at the X position (peptide) | – | > 40 | –
CVIM with glycine at the X position (peptide) | – | > 40 | –
CVIM with lysine at the A2 position (peptide) | > 50 | – | > 30
